This assay concerns the target MC4R of the CHO stable cell line used for radioligand displacement (Table 1A) (UniProt P32245). Description: radioligand displacement, CHO stable cell line, n = 2; radioligand not named. On the technique in general: Loss of bound radioactivity is the signal in a displacement assay; it reports binding, not function.

B1: pN0162 (VHH)
VHH: QVQLVESGGGLVQPGGSLRLSCAASGSAFSLNVMGWYRQTPGNQRALVAEITKDGSTNYADSAKGRFTISRDNAKNTVHLQMDSLKPEDTAVYYCKARTGRIVRPLDYWGQGTQVTVSS
Take B1: the Radioligand displacement (IC50 or Ki not stated) amounted to 6.48 nM.

Values taken from patent US20260103529A1, “Amino Acid Sequences Directed Against the Melanocortin 4 Receptor and Polypeptides Comprising the Same for the Treatment of MC4R-Related Diseases and Disorders” (Confo Therapeutics N.V., priority 2022, published 2026).
